Key:
DRB1*0101 = DRB1*0101 (Homo sapiens, UniProt P01903+P01911, A100R/D57E/F55L/F60I/F76Y/I96L/L162R/M171V/P40L/Q125E/R42F/V115G/Y59C); assay: MHC peptide binding studies with synthetic peptide; settings: MHC peptide binding study
DRB1*0401 = DRB1*0401 (Homo sapiens, UniProt P01903+P01911, A100K/A169T/F76Y/I96L/K127E/L162R/M171V/N62H/P40V/Q125Y/R42H/S133A/S149N/S66Y/V115G/V209L/W38E); assay: MHC peptide binding studies with synthetic peptide; settings: MHC peptide binding study
DRB5*0101 = DRB5*0101 (Homo sapiens, UniProt P01903+Q30154); assay: MHC peptide binding studies with synthetic peptide; settings: MHC peptide binding study
HLA-DR allele DRB5*0101 = HLA-DR allele DRB5*0101 (human); assay: MHC peptide binding study with synthetic peptide
HLA-DR allele DRB1*0101 = HLA-DR allele DRB1*0101 (human); assay: MHC peptide binding study with synthetic peptide
HLA-DR allele DRB1*0401 = HLA-DR allele DRB1*0401 (human); assay: MHC peptide binding study with synthetic peptide

## KPGKTKTIVYQRGILLPQ
DRB1*0101
  binding capacity to allele DRB1*0101: confirmed the binding capacity
DRB1*0401
  binding capacity to allele DRB1*0401: revealed the same
DRB5*0101
  binding capacity to allele DRB5*0101: confirmed the binding capacity

B1: synthetic peptide with the amino acid sequence KPGKTKTIVYQRGILLPQ (influenza hemagglutinin epitope, strain B/Yamanashi/166/98) (peptide)
peptide: KPGKTKTIVYQRGILLPQ
HLA-DR allele DRB5*0101
  binding result: binds
HLA-DR allele DRB1*0101
  binding result: binds
HLA-DR allele DRB1*0401
  binding result: binds

Reference: patent publication US20040086521A1, “Method for the identification of antigenic peptides” (priority 2002, published 2004)
